# Source: PMC5658516
# Molecular target: OTULIN-diUb adduct (endogenous OTULIN coupled to bio-Ub_(G76Dha)-Ub) (human (endogenous in HEK293 and Jurkat T cells) | not stated) (UniProt Q96BN8)
# Experiment: pull-down; biotin-PD of the OTULIN-diUb adduct formed in extracts of transfected HEK293 cells or of Jurkat T cells (with or without TNF-α, 20 ng/mL) on streptavidin agarose, three washes with co-IP buffer; western blot of eluate, input and supernatant
row,percent of the protein removed from the extract by the biotin-PD,Substance
1,25%,endogenous HOIL-1 (from UniProt Q9BYM8 1-510) (natural protein)
2,25%,endogenous HOIP (from UniProt Q96EP0 1-1072) (natural protein)
3,25%,endogenous SHARPIN (from UniProt Q9H0F6 1-387) (natural protein)
